Assay results reported in patent publication US20140072613A1 (published 2014).

Experiments:
Assay in all cases: cell-based or functional assay
IRAK4(h) = target: T1, IRAK4(h) (human, UniProt Q9NWZ3 1-460, limits assumed)
T1 sequence (looked up): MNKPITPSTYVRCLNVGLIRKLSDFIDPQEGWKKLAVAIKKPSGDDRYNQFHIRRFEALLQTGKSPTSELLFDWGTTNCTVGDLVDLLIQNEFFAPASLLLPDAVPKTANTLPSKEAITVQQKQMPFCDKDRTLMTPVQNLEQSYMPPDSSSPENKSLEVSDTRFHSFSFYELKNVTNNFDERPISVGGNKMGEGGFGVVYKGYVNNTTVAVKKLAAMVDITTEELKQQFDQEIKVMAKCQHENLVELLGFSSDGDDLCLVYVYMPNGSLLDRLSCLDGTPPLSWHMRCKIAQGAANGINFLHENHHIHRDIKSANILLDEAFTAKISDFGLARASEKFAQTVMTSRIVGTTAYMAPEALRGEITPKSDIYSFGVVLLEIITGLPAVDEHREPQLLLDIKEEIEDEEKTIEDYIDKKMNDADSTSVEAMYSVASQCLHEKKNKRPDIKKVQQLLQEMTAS

BrSK1(h) = target: T2, BrSK1(h) (human, UniProt Q8TDC3 1-778, limits assumed)
T2 sequence (looked up): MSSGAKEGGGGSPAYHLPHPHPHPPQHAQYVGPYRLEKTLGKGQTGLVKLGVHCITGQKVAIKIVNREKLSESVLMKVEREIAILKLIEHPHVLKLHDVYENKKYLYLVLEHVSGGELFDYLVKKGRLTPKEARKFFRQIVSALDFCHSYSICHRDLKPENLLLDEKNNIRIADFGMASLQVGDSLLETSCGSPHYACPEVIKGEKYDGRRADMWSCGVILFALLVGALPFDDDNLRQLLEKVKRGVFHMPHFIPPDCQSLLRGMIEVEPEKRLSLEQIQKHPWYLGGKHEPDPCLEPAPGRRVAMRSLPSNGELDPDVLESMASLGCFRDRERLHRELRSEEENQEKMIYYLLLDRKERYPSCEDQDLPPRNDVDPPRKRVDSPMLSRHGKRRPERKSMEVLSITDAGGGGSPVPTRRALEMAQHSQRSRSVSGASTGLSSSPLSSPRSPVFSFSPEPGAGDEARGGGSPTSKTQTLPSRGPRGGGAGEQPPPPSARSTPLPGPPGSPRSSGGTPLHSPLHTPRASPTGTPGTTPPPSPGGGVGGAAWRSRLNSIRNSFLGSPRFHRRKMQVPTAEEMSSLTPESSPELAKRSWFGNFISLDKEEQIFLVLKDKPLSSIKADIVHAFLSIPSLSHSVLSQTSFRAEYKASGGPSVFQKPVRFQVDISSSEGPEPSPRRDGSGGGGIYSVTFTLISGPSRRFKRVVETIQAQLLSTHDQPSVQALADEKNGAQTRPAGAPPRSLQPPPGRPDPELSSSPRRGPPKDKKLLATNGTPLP

ULK2(h) = target: T3, ULK2(h) (human, UniProt Q8IYT8 1-631, limits assumed)
T3 sequence (looked up): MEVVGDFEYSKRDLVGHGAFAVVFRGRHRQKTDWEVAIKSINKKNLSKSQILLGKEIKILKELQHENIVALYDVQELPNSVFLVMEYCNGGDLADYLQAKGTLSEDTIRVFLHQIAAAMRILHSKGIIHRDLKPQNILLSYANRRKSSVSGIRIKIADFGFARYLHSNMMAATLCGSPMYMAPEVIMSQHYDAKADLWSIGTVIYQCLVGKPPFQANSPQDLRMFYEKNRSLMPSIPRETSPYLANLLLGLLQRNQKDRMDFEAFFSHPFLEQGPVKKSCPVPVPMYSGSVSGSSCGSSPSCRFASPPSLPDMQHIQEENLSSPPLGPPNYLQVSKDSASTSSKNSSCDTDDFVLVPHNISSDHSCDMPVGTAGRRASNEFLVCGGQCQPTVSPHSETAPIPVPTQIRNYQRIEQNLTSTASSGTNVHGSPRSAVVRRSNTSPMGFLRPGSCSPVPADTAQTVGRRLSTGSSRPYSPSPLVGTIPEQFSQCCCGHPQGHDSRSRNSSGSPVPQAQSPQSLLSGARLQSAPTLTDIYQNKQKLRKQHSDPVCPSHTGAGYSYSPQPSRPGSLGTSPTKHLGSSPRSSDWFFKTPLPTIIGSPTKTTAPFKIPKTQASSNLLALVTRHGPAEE

Met(M1268T)(h) = Met(M1268T)(h) (human, UniProt P08581-2 974-1408, limits assumed)
PAK2(h) = PAK2(h) (human, UniProt Q13177 1-524)
Sequence of PAK2(h) (Q13177 whole entry): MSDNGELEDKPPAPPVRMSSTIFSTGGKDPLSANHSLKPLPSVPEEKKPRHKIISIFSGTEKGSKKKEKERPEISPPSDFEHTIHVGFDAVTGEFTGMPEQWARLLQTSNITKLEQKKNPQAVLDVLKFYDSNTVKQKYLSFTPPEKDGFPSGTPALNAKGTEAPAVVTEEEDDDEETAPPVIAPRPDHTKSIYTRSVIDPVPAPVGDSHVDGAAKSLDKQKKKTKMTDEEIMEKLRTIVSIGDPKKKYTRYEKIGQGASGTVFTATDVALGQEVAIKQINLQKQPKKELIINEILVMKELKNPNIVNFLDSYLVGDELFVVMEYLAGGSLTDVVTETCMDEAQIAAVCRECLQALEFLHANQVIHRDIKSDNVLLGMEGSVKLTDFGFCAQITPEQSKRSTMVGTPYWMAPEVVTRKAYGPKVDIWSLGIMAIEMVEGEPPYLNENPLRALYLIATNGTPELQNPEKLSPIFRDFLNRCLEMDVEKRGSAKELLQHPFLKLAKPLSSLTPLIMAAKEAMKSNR

MST3(h) = MST3(h) (human, UniProt Q9Y6E0 1-443, limits assumed)
Sequence of MST3(h) (Q9Y6E0 whole entry): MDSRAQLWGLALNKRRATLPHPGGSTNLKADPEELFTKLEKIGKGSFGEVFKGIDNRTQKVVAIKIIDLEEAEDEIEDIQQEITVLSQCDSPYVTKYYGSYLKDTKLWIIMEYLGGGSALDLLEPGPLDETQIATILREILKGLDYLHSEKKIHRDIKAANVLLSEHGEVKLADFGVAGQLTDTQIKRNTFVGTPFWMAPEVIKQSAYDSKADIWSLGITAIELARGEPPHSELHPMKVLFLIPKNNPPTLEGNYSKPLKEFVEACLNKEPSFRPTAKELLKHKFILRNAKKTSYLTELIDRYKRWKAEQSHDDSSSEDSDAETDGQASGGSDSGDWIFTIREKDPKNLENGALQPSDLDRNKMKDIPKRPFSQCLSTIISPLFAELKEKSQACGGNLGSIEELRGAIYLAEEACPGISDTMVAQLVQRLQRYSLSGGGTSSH

ARK5(h) = target: T4, ARK5(h) (human, UniProt O60285 1-661, limits assumed)
T4 sequence (looked up): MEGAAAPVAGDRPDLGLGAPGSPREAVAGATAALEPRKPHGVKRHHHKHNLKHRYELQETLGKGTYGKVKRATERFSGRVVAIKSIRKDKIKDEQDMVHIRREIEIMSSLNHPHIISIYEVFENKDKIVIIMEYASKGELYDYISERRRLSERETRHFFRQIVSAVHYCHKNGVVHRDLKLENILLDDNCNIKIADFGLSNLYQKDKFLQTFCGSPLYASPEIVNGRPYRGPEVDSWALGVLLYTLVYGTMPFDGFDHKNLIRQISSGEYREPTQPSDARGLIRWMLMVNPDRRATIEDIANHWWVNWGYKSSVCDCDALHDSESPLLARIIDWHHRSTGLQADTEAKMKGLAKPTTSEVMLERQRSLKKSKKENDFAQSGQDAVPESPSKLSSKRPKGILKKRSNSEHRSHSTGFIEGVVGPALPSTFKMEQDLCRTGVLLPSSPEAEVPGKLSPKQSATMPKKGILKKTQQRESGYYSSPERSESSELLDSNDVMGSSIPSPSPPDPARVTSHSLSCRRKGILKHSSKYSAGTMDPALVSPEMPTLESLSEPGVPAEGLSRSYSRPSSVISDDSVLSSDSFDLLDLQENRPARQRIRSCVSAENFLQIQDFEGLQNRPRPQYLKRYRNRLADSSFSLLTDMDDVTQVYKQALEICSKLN

MAPKAP-K3(h) = MAPKAP-K3(h) (human, UniProt Q16644 1-382, limits assumed)
Sequence of MAPKAP-K3(h) (Q16644 whole entry): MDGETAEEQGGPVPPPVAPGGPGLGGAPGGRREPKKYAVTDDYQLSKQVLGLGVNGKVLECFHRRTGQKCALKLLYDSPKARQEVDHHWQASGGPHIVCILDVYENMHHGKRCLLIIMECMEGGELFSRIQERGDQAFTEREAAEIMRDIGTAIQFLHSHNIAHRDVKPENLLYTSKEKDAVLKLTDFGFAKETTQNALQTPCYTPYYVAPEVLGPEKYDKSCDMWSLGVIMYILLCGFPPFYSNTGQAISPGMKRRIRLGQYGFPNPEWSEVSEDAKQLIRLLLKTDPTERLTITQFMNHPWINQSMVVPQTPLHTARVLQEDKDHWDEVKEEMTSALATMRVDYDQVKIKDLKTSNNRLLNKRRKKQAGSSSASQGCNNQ

mTOR/FKBP12(h) = mTOR/FKBP12(h) (human, UniProt P42345 1362-2549; P62942 1-108)
Sequence of mTOR/FKBP12(h) (P42345 1362-2549 limits assumed, chain 1 of 2): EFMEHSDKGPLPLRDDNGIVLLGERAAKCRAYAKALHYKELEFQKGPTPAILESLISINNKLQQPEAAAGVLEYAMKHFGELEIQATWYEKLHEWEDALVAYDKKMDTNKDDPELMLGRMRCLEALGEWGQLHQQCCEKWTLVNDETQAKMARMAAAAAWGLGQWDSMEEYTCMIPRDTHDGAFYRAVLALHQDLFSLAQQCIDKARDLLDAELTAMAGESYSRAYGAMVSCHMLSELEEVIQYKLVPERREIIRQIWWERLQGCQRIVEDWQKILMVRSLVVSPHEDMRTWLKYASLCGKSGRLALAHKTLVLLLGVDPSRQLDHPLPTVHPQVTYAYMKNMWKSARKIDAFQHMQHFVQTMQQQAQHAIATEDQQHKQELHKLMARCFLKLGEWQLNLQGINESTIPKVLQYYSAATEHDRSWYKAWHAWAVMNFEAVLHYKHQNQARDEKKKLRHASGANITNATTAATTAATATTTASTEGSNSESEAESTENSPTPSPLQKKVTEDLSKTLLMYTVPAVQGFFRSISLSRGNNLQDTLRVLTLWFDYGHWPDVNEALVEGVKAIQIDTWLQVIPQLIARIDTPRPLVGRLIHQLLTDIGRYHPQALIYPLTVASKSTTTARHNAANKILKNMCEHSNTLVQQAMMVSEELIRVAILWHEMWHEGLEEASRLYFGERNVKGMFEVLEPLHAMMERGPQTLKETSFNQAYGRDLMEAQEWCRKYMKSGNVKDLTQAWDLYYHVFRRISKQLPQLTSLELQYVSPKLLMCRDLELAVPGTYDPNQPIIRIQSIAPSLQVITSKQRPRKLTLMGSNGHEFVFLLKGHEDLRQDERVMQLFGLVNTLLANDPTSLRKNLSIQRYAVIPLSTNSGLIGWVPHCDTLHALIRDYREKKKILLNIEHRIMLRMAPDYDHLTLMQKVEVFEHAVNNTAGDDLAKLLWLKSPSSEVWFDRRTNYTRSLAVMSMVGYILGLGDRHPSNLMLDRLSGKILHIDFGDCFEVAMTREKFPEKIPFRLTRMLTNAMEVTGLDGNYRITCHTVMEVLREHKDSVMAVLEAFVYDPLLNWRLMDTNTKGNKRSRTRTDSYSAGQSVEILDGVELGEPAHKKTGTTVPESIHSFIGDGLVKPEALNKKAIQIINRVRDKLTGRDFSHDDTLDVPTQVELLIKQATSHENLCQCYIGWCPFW
Sequence of mTOR/FKBP12(h) (P62942 whole entry, chain 2 of 2): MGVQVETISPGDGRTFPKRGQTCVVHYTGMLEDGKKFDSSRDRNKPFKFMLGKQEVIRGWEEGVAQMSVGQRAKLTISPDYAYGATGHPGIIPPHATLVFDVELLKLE

CaMKIIβ(h) = CaMKIIβ(h) (human, UniProt Q13554 1-666)
Sequence of CaMKIIβ(h) (Q13554 whole entry): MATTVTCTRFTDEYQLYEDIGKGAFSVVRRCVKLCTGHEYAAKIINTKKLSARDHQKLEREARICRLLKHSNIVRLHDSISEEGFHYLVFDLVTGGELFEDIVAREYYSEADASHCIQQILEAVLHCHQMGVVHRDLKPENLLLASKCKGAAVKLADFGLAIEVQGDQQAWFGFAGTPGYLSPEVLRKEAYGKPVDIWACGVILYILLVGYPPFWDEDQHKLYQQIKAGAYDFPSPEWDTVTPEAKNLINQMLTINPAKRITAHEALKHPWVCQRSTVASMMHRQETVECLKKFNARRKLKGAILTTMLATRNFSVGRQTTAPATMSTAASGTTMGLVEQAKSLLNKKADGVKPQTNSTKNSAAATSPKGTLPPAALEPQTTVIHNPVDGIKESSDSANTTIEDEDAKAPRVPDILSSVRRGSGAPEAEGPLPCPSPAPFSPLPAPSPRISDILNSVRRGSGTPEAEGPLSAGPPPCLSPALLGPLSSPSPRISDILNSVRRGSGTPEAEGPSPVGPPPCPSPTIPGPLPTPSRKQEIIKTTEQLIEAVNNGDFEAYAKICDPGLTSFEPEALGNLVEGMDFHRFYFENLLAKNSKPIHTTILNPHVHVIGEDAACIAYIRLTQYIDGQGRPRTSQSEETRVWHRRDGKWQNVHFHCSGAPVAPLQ

KAFAKLAARLYRKALARQLGVAA [MMI-0400]
% activity, 100 µM (IRAK4(h)): 59% | % activity, 100 µM (BrSK1(h)): 76% | % activity, 100 µM (ULK2(h)): 131% | % activity, 100 µM (Met(M1268T)(h)): 265% | % activity, 100 µM (PAK2(h)): 59% | % activity, 100 µM (MST3(h)): 36% | % activity, 100 µM (ARK5(h)): 69% | % activity, 100 µM (MAPKAP-K3(h)): 7% | % activity, 100 µM (mTOR/FKBP12(h)): 125% | % activity, 100 µM (CaMKIIβ(h)): 11%

FAKLAARLYRKALARQLGVAA [MMI-0300]
% activity, 100 µM (IRAK4(h)): 59% | % activity, 100 µM (BrSK1(h)): 67% | % activity, 100 µM (ULK2(h)): 122% | % activity, 100 µM (Met(M1268T)(h)): 255% | % activity, 100 µM (PAK2(h)): 65% | % activity, 100 µM (MST3(h)): 45% | % activity, 100 µM (ARK5(h)): 78% | % activity, 100 µM (MAPKAP-K3(h)): 3% | % activity, 100 µM (mTOR/FKBP12(h)): 145% | % activity, 100 µM (CaMKIIβ(h)): 2%
